Data published in US12630600B2 (MEDIMMUNE LIMITED, priority 2022, dated 2026).
Starred links: 1 amine or outer side, 2 acyl side, 3 side chain; linkers in the order of their positions; H or OH if unused. Non-standard residues stand in square brackets, D forms with d. Groups on a side chain read outwards from the residue. No end group written: not given here. *: point of attachment. C20 diacid = O=C(O)CCCCCCCCCCCCCCCCCCC(=O)*; C18 diacid = O=C(O)CCCCCCCCCCCCCCCCC(=O)*; γGlu = O=C(O)[C@H](CCC(=O)[*:2])N[*:1]; αMeF = C[C@](N)(Cc1ccccc1)C(=O)O; AEEA = NCCOCCOCC(=O)O; Aib = CC(C)(N)C(=O)O

Key:
[1] = biological target: human GLP-1 receptor (human, UniProt P43220); test: cell-based or functional assay
[2] = biological target: human glucagon receptor (human, UniProt P47871); test: cell-based or functional assay

Binder | cAMP production, hGLP-1R EC50 (pM) [1] [pM] | cAMP production, hGluc-R EC50 (pM) [2] [pM]
H[Aib]QGS[αMeF]TSDVSK[αMeF]LDSK([AEEA-AEEA-γGlu-γGlu-C18 diacid])AAQD[αMeF]VQ[Aib]IAN-NH2 (N-terminus assumed; SMILES CC[C@H](C)[C@H](NC(=O)C(C)(C)NC(=O)[C@H](CCC(N)=O)NC(=O)[C@@H](NC(=O)[C@](C)(Cc1ccccc1)NC(=O)[C@H](CC(=O)O)NC(=O)[C@H](CCC(N)=O)NC(=O)[C@H](C)NC(=O)[C@H](C)NC(=O)[C@H](CCCCNC(=O)COCCOCCNC(=O)COCCOCCNC(=O)CC[C@H](NC(=O)CC[C@H](NC(=O)CCCCCCCCCCCCCCCCC(=O)O)C(=O)O)C(=O)O)NC(=O)[C@H](CO)NC(=O)[C@H](CC(=O)O)NC(=O)[C@H](CC(C)C)NC(=O)[C@](C)(Cc1ccccc1)NC(=O)[C@H](CCCCN)NC(=O)[C@H](CO)NC(=O)[C@@H](NC(=O)[C@H](CC(=O)O)NC(=O)[C@H](CO)NC(=O)[C@@H](NC(=O)[C@](C)(Cc1ccccc1)NC(=O)[C@H](CO)NC(=O)CNC(=O)[C@H](CCC(N)=O)NC(=O)C(C)(C)NC(=O)[C@@H](N)Cc1c[nH]cn1)[C@@H](C)O)C(C)C)C(C)C)C(=O)N[C@@H](C)C(=O)N[C@@H](CC(N)=O)C(N)=O) [Peptide 5] | 283 | 7140
HSQGS[αMeF]TSDVSK[αMeF]LDSK([AEEA-AEEA-γGlu-C18 diacid])AAQDFVQWIANT-NH2 (N-terminus assumed; SMILES CC[C@H](C)[C@H](NC(=O)[C@H](Cc1c[nH]c2ccccc12)NC(=O)[C@H](CCC(N)=O)NC(=O)[C@@H](NC(=O)[C@H](Cc1ccccc1)NC(=O)[C@H](CC(=O)O)NC(=O)[C@H](CCC(N)=O)NC(=O)[C@H](C)NC(=O)[C@H](C)NC(=O)[C@H](CCCCNC(=O)COCCOCCNC(=O)COCCOCCNC(=O)CC[C@H](NC(=O)CCCCCCCCCCCCCCCCC(=O)O)C(=O)O)NC(=O)[C@H](CO)NC(=O)[C@H](CC(=O)O)NC(=O)[C@H](CC(C)C)NC(=O)[C@](C)(Cc1ccccc1)NC(=O)[C@H](CCCCN)NC(=O)[C@H](CO)NC(=O)[C@@H](NC(=O)[C@H](CC(=O)O)NC(=O)[C@H](CO)NC(=O)[C@@H](NC(=O)[C@](C)(Cc1ccccc1)NC(=O)[C@H](CO)NC(=O)CNC(=O)[C@H](CCC(N)=O)NC(=O)[C@H](CO)NC(=O)[C@@H](N)Cc1c[nH]cn1)[C@@H](C)O)C(C)C)C(C)C)C(=O)N[C@@H](C)C(=O)N[C@@H](CC(N)=O)C(=O)N[C@H](C(N)=O)[C@@H](C)O) [Peptide 4] | 240 | 1170
H[Aib]QGTFTSDVSK[αMeF]LDSK([AEEA-AEEA-γGlu-C20 diacid])RAQDFVRWLL[Aib]TE-OH (N-terminus assumed; SMILES CC(C)C[C@H](NC(=O)[C@H](Cc1c[nH]c2ccccc12)NC(=O)[C@H](CCCNC(=N)N)NC(=O)[C@@H](NC(=O)[C@H](Cc1ccccc1)NC(=O)[C@H](CC(=O)O)NC(=O)[C@H](CCC(N)=O)NC(=O)[C@H](C)NC(=O)[C@H](CCCNC(=N)N)NC(=O)[C@H](CCCCNC(=O)COCCOCCNC(=O)COCCOCCNC(=O)CC[C@H](NC(=O)CCCCCCCCCCCCCCCCCCC(=O)O)C(=O)O)NC(=O)[C@H](CO)NC(=O)[C@H](CC(=O)O)NC(=O)[C@H](CC(C)C)NC(=O)[C@](C)(Cc1ccccc1)NC(=O)[C@H](CCCCN)NC(=O)[C@H](CO)NC(=O)[C@@H](NC(=O)[C@H](CC(=O)O)NC(=O)[C@H](CO)NC(=O)[C@@H](NC(=O)[C@H](Cc1ccccc1)NC(=O)[C@@H](NC(=O)CNC(=O)[C@H](CCC(N)=O)NC(=O)C(C)(C)NC(=O)[C@@H](N)Cc1c[nH]cn1)[C@@H](C)O)[C@@H](C)O)C(C)C)C(C)C)C(=O)N[C@@H](CC(C)C)C(=O)NC(C)(C)C(=O)N[C@H](C(=O)N[C@@H](CCC(=O)O)C(=O)O)[C@@H](C)O) [Peptide 151] | 111 | 178
H[Aib]QGTFTSDVSK[αMeF]LDSK([AEEA-AEEA-γGlu-C18 diacid])RAQDFVQWLL[Aib]TE-OH (not fully specified) [Peptide 150] | 166 | 355

Now from value to binder:

cAMP production, hGLP-1R EC50 (pM) [1] [pM] | cAMP production, hGluc-R EC50 (pM) [2] [pM] | Binder
11.9 | 20.4 | H[Aib]QGTFTSDVSK[αMeF]LDSK([AEEA-AEEA-γGlu-C18 diacid])RAQDFVRWLL[Aib]E-OH (N-terminus assumed; SMILES CC(C)C[C@H](NC(=O)[C@H](Cc1c[nH]c2ccccc12)NC(=O)[C@H](CCCNC(=N)N)NC(=O)[C@@H](NC(=O)[C@H](Cc1ccccc1)NC(=O)[C@H](CC(=O)O)NC(=O)[C@H](CCC(N)=O)NC(=O)[C@H](C)NC(=O)[C@H](CCCNC(=N)N)NC(=O)[C@H](CCCCNC(=O)COCCOCCNC(=O)COCCOCCNC(=O)CC[C@H](NC(=O)CCCCCCCCCCCCCCCCC(=O)O)C(=O)O)NC(=O)[C@H](CO)NC(=O)[C@H](CC(=O)O)NC(=O)[C@H](CC(C)C)NC(=O)[C@](C)(Cc1ccccc1)NC(=O)[C@H](CCCCN)NC(=O)[C@H](CO)NC(=O)[C@@H](NC(=O)[C@H](CC(=O)O)NC(=O)[C@H](CO)NC(=O)[C@@H](NC(=O)[C@H](Cc1ccccc1)NC(=O)[C@@H](NC(=O)CNC(=O)[C@H](CCC(N)=O)NC(=O)C(C)(C)NC(=O)[C@@H](N)Cc1c[nH]cn1)[C@@H](C)O)[C@@H](C)O)C(C)C)C(C)C)C(=O)N[C@@H](CC(C)C)C(=O)NC(C)(C)C(=O)N[C@@H](CCC(=O)O)C(=O)O) [Peptide 152]
41.2 | 99 | H[Aib]QGTFTSDVSK[αMeF]LDSK([AEEA-AEEA-γGlu-C20 diacid])RAQDFVRWLL[Aib]E-OH (N-terminus assumed; SMILES CC(C)C[C@H](NC(=O)[C@H](Cc1c[nH]c2ccccc12)NC(=O)[C@H](CCCNC(=N)N)NC(=O)[C@@H](NC(=O)[C@H](Cc1ccccc1)NC(=O)[C@H](CC(=O)O)NC(=O)[C@H](CCC(N)=O)NC(=O)[C@H](C)NC(=O)[C@H](CCCNC(=N)N)NC(=O)[C@H](CCCCNC(=O)COCCOCCNC(=O)COCCOCCNC(=O)CC[C@H](NC(=O)CCCCCCCCCCCCCCCCCCC(=O)O)C(=O)O)NC(=O)[C@H](CO)NC(=O)[C@H](CC(=O)O)NC(=O)[C@H](CC(C)C)NC(=O)[C@](C)(Cc1ccccc1)NC(=O)[C@H](CCCCN)NC(=O)[C@H](CO)NC(=O)[C@@H](NC(=O)[C@H](CC(=O)O)NC(=O)[C@H](CO)NC(=O)[C@@H](NC(=O)[C@H](Cc1ccccc1)NC(=O)[C@@H](NC(=O)CNC(=O)[C@H](CCC(N)=O)NC(=O)C(C)(C)NC(=O)[C@@H](N)Cc1c[nH]cn1)[C@@H](C)O)[C@@H](C)O)C(C)C)C(C)C)C(=O)N[C@@H](CC(C)C)C(=O)NC(C)(C)C(=O)N[C@@H](CCC(=O)O)C(=O)O) [Peptide 153]
48 | 270 | H[Aib]QGTFTSDVSK[αMeF]LDSK([AEEA-AEEA-γGlu-C18 diacid])RARDFVRWLL[Aib]TE-OH (also: αMePhe at 23 (V)) [Peptide 166]
